B1: rat GPRC6A, wild type (receptor, UniProt Q70VB1 21-928, looked up)
chain: CHTPDDFVAITSPGHIMIGGLFAIHEKMLSSDDHPRQPQIQKCVGFEISVFLQTLAMIHSIEMINNSSLLSGVKLGYEIYDTCTEVTAAMAATLRFLSKFNCSRETVIFQCDYSSYVPRVKAIIGAGYSEISMAVSRMLNLQLMPQVSYESTAEILSDKIRFPSFLRTVPSDFYQTKAMAHLIRQSGWNWVGAITTDDDYGRLALNTFAIQAAENNVCIAFKEVLPAFLSDNTIEVRINQTLEKIIAEAQVNVIVVFLRKFHVFNLFNKAIERKISKIWIASDNWSTAAKIITIPNVKKLGKVVGFTFRRGNMSSFHSFLQTLHMYPSDNNKPLHEFAMLFSACKHIKDGDLSQCISNYSQATWTYDTTKTIETHLFKRNDFLWHYTEPGLIHSIQLAVLALGHAIRDLCQDRDCQKPNAFQPWELLAVLKNVTFTDGKNSFHFDAHGDLNTGYEVVLWKETNGLMTVTKMAEYDLQHDVFITTNQETKHEFRKLKQILSKCSKECIPGQMKKATGSQHSCCYECVNCPENHYSNETDMDHCLVCNNETHWAPVRSTMCFEKEVEYLDWDDSLALLLIALSLLGIAFVLAVGIIFTRNLKTPVVKSSGGLVVCYVMLACHALNFASTGFFIGEPQDFTCKTRQTLFGVSFTLCVSCILTKSLKILLAFSFDPTLKTFLKCLYRPVPIVLTCTGIQVVICTLWLVLAAPTVEENTSLPRVIILECEEGSALAFGTMLGYIAVLAFICFVFAFKGRKLPENYNEAKFLTFGMLIYFIAWITFIPVYATTFGKYLPAVEIIVILISNYGILCCTFFPKCYIILCKQKTNTKSVFLQMVYNYSAHSVDSLALSHVSLDSASHSTATTNPRPGNKTAACQNYKHLPVQVLAHTGMEKTMHASKTLHQKRSSSI
notes: GPRC6A, rat; previously described myc-tagged rat GPRC6A-pEGFPN1 construct with the mGluR5 signal peptide upstream of the myc tag; Each copy carries one tag only, HA or myc; the HA-GPRC6A construct is not described; also called WT myc-GPRC6A; WT HA-GPRC6A; source: HEK293T, transiently transfected (Lipofectamine 2000), on cells; not shown: HA (one copy), N-terminal, kept; myc (the other copy), …
B2: rat calcium-sensing receptor, wild type (receptor, UniProt P48442 20-1079, looked up)
chain: YGPDQRAQKKGDIILGGLFPIHFGVAAKDQDLKSRPESVECIRYNFRGFRWLQAMIFAIEEINSSPSLLPNMTLGYRIFDTCNTVSKALEATLSFVAQNKIDSLNLDEFCNCSEHIPSTIAVVGATGSGVSTAVANLLGLFYIPQVSYASSSRLLSNKNQYKSFLRTIPNDEHQATAMADIIEYFRWNWVGTIAADDDYGRPGIEKFREEAEERDICIDFSELISQYSDEEEIQQVVEVIQNSTAKVIVVFSSGPDLEPLIKEIVRRNITGRIWLASEAWASSSLIAMPEYFHVVGGTIGFGLKAGQIPGFREFLQKVHPRKSVHNGFAKEFWEETFNCHLQEGAKGPLPVDTFVRSHEEGGNRLLNSSTAFRPLCTGDENINSVETPYMDYEHLRISYNVYLAVYSIAHALQDIYTCLPGRGLFTNGSCADIKKVEAWQVLKHLRHLNFTNNMGEQVTFDECGDLVGNYSIINWHLSPEDGSIVFKEVGYYNVYAKKGERLFINEEKILWSGFSREVPFSNCSRDCQAGTRKGIIEGEPTCCFECVECPDGEYSGETDASACDKCPDDFWSNENHTSCIAKEIEFLAWTEPFGIALTLFAVLGIFLTAFVLGVFIKFRNTPIVKATNRELSYLLLFSLLCCFSSSLFFIGEPQDWTCRLRQPAFGISFVLCISCILVKTNRVLLVFEAKIPTSFHRKWWGLNLQFLLVFLCTFMQILICIIWLYTAPPSSYRNHELEDEIIFITCHEGSLMALGSLIGYTCLLAAICFFFAFKSRKLPENFNEAKFITFSMLIFFIVWISFIPAYASTYGKFVSAVEVIAILAASFGLLACIFFNKVYIILFKPSRNTIEEVRSSTAAHAFKVAARATLRRPNISRKRSSSLGGSTGSIPSSSISSKSNSEDRFPQPERQKQQQPLSLTQQEQQQQPLTLHPQQQQQPQQPRCKQKVIFGSGTVTFSLSFDEPQKNAMAHRNSMRQNSLEAQRSNDTLGRHQALLPLQCADADSEMTIQETGLQGPMVGDHQPEMESSDEMSPALVMSTSRSFVISGGGSSVTENVLHS
notes: calcium-sensing receptor (CaSR), rat; Each copy carries one tag only, HA or myc; the two differently tagged copies were co-expressed; The mGluR5 signal peptide stands upstream of the tag; also called CaSR; WT HA-CaSR; source: HEK293T, transiently transfected (Lipofectamine 2000), on cells; not shown: HA (one copy), N-terminal, kept; myc (the other copy), N-terminal, kept

Target: the molecule itself
Assay: FRET or BRET; TR-FRET dimerization assay on transiently transfected HEK293T cells co-expressing an HA-tagged and a myc-tagged construct (1:1); Tb3+-conjugated anti-HA antibody (donor, 1 nM) and d2-conjugated anti-myc antibody (acceptor, 50 nM), 24 h at 4 °C; HBSS, 20 mM HEPES, 0.5 mM CaCl2, 0.5 mM MgCl2, 5 mg/mL bovine serum albumin, pH 7.4; FRET ratio (665 nm/615 nm) normalized to pEGFPN1

| Protein | fold increase in FRET signal |
| --- | --- |
| B1 | 9.8 fold |
| B2 | 11.8 fold |

From PMC5394417, “Investigating the molecular mechanism of positive and negative allosteric modulators in the calcium-sensing receptor dimer” (Scientific Reports, 2017)
